The values below come from PMC9606830, “GhBEE3-Like gene regulated by brassinosteroids is involved in cotton drought tolerance”.

Series [1] concerns the target T1, GhBZR1-His (Gossypium hirsutum, UniProt A0A1B0QVW2 1-313).
T1 sequence: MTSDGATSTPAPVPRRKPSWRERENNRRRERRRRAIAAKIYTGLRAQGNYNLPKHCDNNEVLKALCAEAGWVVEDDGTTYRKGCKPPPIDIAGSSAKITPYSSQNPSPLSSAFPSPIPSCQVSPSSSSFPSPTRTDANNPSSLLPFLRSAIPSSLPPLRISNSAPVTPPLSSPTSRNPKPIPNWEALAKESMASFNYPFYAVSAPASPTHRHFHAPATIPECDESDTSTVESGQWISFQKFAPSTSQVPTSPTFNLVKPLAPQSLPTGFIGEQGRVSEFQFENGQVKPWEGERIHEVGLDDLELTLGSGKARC
Kind of series: EMSA; LightShift Chemiluminescent EMSA Kit (Thermo); buffer, salt, pH and temperature not stated. Conditions: protein: recombinant; tags: C-terminal His (pET30a); chain copies: 2; label: biotin on both strands (text: 3'-end and 5'-end); blunt.

In series [2] the target is T1, GhBZR1-His. Briefly: competition; unlabelled competitor against biotinylated GhBEE3-Like Probe; significantly reduced the shift; LightShift Chemiluminescent EMSA Kit (Thermo); buffer, salt, pH and temperature not stated. To be noted: protein: recombinant; tags: C-terminal His (pET30a); chain copies: 2; label: none; blunt.

B1: GhBEE3-Like Probe (dsDNA)
DNA 1: ACAATTACACGTGACATGTC
DNA 2: GACATGTCACGTGTAATTGT
On to B1, for which, in the series with GhBZR1-His [1], the binding result is “binds”.

B2: Mutant Probe (dsDNA)
DNA 1: ACAATTAAGCGGAACATGTC
DNA 2: GACATGTTCCGCTTAATTGT
Regarding B2, in the series with GhBZR1-His [1], the binding result is on record as “no binding”.

B3: Competitor Probe (dsDNA)
DNA 1: ACAATTACACGTGACATGTC
DNA 2: GACATGTCACGTGTAATTGT
Regarding B3, the binding result in the series with GhBZR1-His [2] is listed as “binds”.
